Test results: PMC2670953 (Journal of molecular biology, 2009)

Biological target: DNA polymerase II (Pol II) of E. coli (E. coli, UniProt P21189 1-783)
Test: SPR

Chain of DNA polymerase II (Pol II) of E. coli (P21189 whole entry): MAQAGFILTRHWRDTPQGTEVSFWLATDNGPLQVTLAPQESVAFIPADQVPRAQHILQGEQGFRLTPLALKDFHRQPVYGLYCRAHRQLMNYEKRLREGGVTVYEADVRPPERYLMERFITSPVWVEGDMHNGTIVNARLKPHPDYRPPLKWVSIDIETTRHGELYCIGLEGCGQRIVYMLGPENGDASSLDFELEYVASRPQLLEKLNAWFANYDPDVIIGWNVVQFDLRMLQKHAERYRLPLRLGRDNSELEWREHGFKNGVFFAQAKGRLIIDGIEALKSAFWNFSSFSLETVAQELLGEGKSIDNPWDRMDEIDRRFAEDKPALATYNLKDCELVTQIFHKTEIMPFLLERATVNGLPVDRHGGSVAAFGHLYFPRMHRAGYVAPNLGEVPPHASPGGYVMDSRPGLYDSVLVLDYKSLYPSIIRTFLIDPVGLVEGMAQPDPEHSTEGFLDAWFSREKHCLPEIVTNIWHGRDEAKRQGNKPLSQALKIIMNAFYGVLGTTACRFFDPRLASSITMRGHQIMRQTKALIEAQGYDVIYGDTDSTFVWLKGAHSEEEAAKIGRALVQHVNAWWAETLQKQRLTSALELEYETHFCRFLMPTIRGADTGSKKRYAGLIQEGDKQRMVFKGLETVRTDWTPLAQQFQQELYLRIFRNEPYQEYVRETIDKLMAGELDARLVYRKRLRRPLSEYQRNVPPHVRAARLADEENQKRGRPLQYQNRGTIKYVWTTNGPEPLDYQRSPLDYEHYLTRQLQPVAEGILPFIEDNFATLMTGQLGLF

Kd: 182 nM | koff: 0.00273 s⁻¹ | kon: 15100 M⁻¹ s⁻¹
B1: mutant β^148–152 sliding clamp, N-terminally His6 and cAMP-dependent kinase motif tagged (natural protein, E. coli)
chain: MKFTVEREHLLKPLQQVSGPLGGRPTLPILGNLLLQVADGTLSLTGTDLEMEMVARVALVQPHEPGATTVPARKFFDICRGLPEGAEIAVQLEGERMLVRSGRSRFSLSTLPAADFPNLDDWQSEVEFTLPQATMKRLIEATQFSMAAAAAAYYLNGMLFETEGEELRTVATDGHRLAVCSMPIGQSLPSHSVIVPRKGVIELMRMLDGGDNPLRVQIGSNNIRAHVGDFIFTSKLVDGRFPDYRRVLPKNPDKHLEAGCDLLKQAFARAAILSNEKFRGVRLYVSENQLKITANNPEQEEAEEILDVTYSGAEMEIGFNVSYVLDVLNALKCENVRMMLTDSVSSVQIEDAASQSAAYVVMPMRL
